Laboratory results reported in US10479836B2, “Method for treating pulmonary hypertension with interleukin-5 receptor antibody” (University of Toyama, priority 2015, dated 2019).
Entries after “also recorded” stand apart in the source; their conditions may differ.

B1: KM8808: core fucose-deficient anti-dinitrophenol (DNP) rat/human chimeric antibody, isotype control (antibody, V domains shown)
VH: EVQLQESGPGLVKPSQSLSLTCSVTGYSITSGYWNWIRKFPGNKMEWIGYISYSGSTYYNPSLKSRISITRDTSKNQFFLQLNSVTTEDTATYYCARWGVRHYFDYWGQGVMATVSS
VL: DVVMTQTPVSLPVSLGGQASISCRSSQSLANSYGNTYLSWYLQKPGQSPQLLIYRVSNTFSGVPDRFSGSGSGTDFTLKISRVEPEDLGDYYCLQGTHQPYTFGAGTKLELK
B2: KM6161: N-linked sugar chain-deficient anti-DNP rat/human chimeric antibody containing N297A substitution, isotype control (antibody, V domains shown)
VH: B1 VH
VL: B1 VL
B3: H7-2: core fucose-deficient H7 chimeric antibody, human IgG1, with Cys at VL position 87 replaced with Ser (antibody, V domains shown)
VH: EVQLQQSGAELGKPGTSVKLSCKVSGYNIKNTYIHWVNQRPGKGLEWIGRIDPANGNPIYAEKFKNKATLTADTSSNTAYMQLSQLKSDDTAIYFCAMHRGHSMGPGPYVMDAWGQGASVTVSS
VL: DIQMTQSPASLSASLGETVTIECRTSEDIYNGLAWYQQKPGKSPQLLIYNANSLHTGVPSRFSGSGSGTQYSLKINSLQSEDVASYSCQQYSNYPFTFGSGTKLEIK
B4: H7-4: N-linked sugar chain-deficient H7 chimeric antibody, human IgG1 (N297A), with Cys at VL position 87 replaced with Ser (antibody, V domains shown)
VH: B3 VH
VL: B3 VL

Tests used:
[1] = tested on: Y16 cells; test: ADCC activity against Y16 cells with human PBMC effector cells (LDH release); assay type: cell-based, mouse; conditions: 4 hrs, 0.0001-1000 ng/mL (control antibodies 1000 ng/mL), FIG. 13
Procedure: The H7 recombinant chimeric antibodies prepared in Example 8 were evaluated for their ADCC activity against Y16 cells using frozen human peripheral blood mononuclear cells (PBMCs) (manufactured by AllCells) as effector cells. The frozen human PBMCs were shake-cultured (37° C., 5% CO2, overnight) in RPMI1640 medium containing 5% FBS. The Y16 cells (target cells) and the human PBMCs (effector cells) were washed with ADCC assay medium (RPIM1640 containing 5% dialyzed FBS) and adjusted to cell densities of 2×10^5 cells/mL and 3×10^6 cells/mL, respectively. The cells were washed twice with a medium and then suspended into cell densities of 4×10^5 cells/mL. Each chimeric antibody adjusted to a final concentration of 0.0001, 0.001, 0.01, 0.1, 1, 10, 100, or 1000 ng/mL, the target cells (2×10^4 cells/well), and the effector cells (5×10^5 cells/well) were added in this order at 50 μL/well to a 96-well U-bottom plate. The control antibodies used were the rtDNP-1 hIgG1 (DF) antibody (KM8808) and the rtDNP-1 hIgG1 (N297A) antibody (KM6161) of Example 10 adjusted to a final concentration of 1000 ng/mL. The plate was centrifuged (500 rpm, 5 min) and then left standing in an incubator (37° C., 5% CO2, 4 hrs). The plate was centrifuged (1500 rpm, 5 min) to recover a supernatant at 50 μL/well into a 96-well Flat-bottom plate (manufactured by Sumitomo Bakelite Co., Ltd.). Lactate dehydrogenase (LDH) activity in the supernatant was detected using CytoTox 96 Non-Radioactive Cytotoxicity Assay (manufactured by Promega Corp.). Absorbance at 490 nm was measured using a plate reader SPECTRA MAX 340 PC384 (manufactured by Molecular Devices, LLC). The ADCC activity (%) was calculated according to the following equation using background-corrected measurement values. Cytotoxicity=[[Absorbance of the sample]−[Absorbance derived from spontaneous release from the target cells and the effector cells]]/[[Absorbance derived from total release from the target cells]−[Absorbance derived from spontaneous release from the target cells]]

[2] = tested on: Y16 cells; test: IL-5 signal inhibition: rIL-5-dependent Y16 growth inhibition (WST-1); assay type: cell-based, mouse; conditions: rIL-5 5 units/mL, 24 hours; for inhibition of Y16 cell growth (IL-5 signal-inhibiting function): antibody 0.01-10 μg/mL, FIG. 14
Procedure: Whether or not the various recombinant chimeric antibodies prepared in Example 8 would have the function of inhibiting IL-5 signals was studied by using Y16 growth inhibition as an index. 2×10^3 Y16 cells were cultured for 24 hours in the presence or absence of rIL-5 (5 units/mL) after addition of the Cys substitution-containing core fucose-unlinked H7 recombinant chimeric antibody H7 (CS) hIgG1 (DF) (H7-2), the N-linked sugar chain-deficient H7 recombinant chimeric antibody H7 (CS) hIgG1 (N297A) (H7-4), and the anti-DNP antibodies KM8808 and KM6161 at a concentration of 0.01, 0.1, 1, or 10 μg/mL. 24 hours later, these antibodies were evaluated for their ability to inhibit growth using Premix WST-1 Cell Proliferation Assay System (manufactured by Takara Bio Inc.). The culture time after addition of the reagent of the cell growth assay kit was set to 1 hour.

[3] = tested on: eosinophils (CD45-positive, Gr1-negative, Siglec-F-positive cells); test: IL-33-induced increase of lung eosinophils, FCM of lung cell suspension; assay type: in vivo, mouse; conditions: IL-5+/+ mice, 100 μg antibody i.p. five times; for inhibition of IL-33-induced increase in the number of eosinophils: FCM day 21, FIG. 16; for abundance ratio of eosinophils, in absence of IL-33 (PBS): PBS instead of IL-33; for abundance ratio of eosinophils, in absence of IL-33 (PBS) / abundance ratio of eosinophils, in presence of IL-33: lung cells day 21, FCM; for abundance ratio of eosinophils, in presence of IL-33: rIL-33 days 0, 7, 14
Procedure: (§1) In an experimental system similar to that of Example 3, in order to confirm the inhibitory effects of anti-IL-5R antibodies and anti-IL-5 neutralizing antibodies on vascular wall thickening, 100 μg of the H7 (CS) hIgG1 (DF) (H7-2) antibody, the H7 (CS) hIgG1 (N297A) (H7-4) antibody, an anti-IL-5 antibody (ligand-neutralizing antibody, clone name: TRFK5), the anti-DNP antibody KM8808, the anti-DNP antibody KM6161, or rat IgG (clone name: HRPN) was intraperitoneally administered to each IL-5^+/+ mouse a total of five times (3 consecutive days (three times) from two days before the first rIL-33 administration day (day 0), once on the second rIL-33 administration day (day 7), and once on the third rIL-33 administration day (day 14)) (FIG. 15). Then, on day 21, lung tissues were resected and evaluated by FCM and immunofluorescent staining.
In the FCM, 1×10^6 cells in the lung cell suspension were stained with a PE-Cy7-conjugated anti-CD45 antibody (30-F11), an APC-conjugated anti-Gr1 antibody (RB6-8C5), and a PE-conjugated anti-Siglec-F antibody (E50-2440) (all manufactured by BD Biosciences). CD45-positive, Gr1-negative, and Siglec-F-positive cells were regarded as eosinophils, and the influence of antibody administration was observed.

[4] = tested on: IL-33-induced vascular wall thickening (SMA-positive cells); test: IL-33-induced vascular wall thickening, immunofluorescent staining of lung tissue; assay type: in vivo, mouse; conditions: IL-5+/+ mice, 100 μg antibody i.p. five times; lung tissue day 21
Procedure: as §1
In the immunofluorescent staining, the tissues were sliced into 30 μm, and slides were prepared and then stained with an Alexa 488-conjugated anti-SMA antibody (1A4) (manufactured by Abcam plc) and an Alexa 647-conjugated anti-Siglec-F antibody (E50-2440). The nuclei of the cells were stained with Hoechst 33342 (manufactured by Life Technologies Corp.). Here, the degree of the growth of SMA-positive cells (primary media-constituting cells) was observed.

[5] = tested on: mouse IL-5Rα-expressing cell Y16; test: Antigen binding activity of chimeric antibodies on Y16 cells by FCM; assay type: cell-based; conditions: FIG. 12
Procedure: The chimeric antibodies prepared in Example 8 were evaluated for their antigen binding activity using a mouse-derived cell line Y16 expressing IL-5R. The Y16 cells were washed with SM (staining medium containing 2% FCS, 0.05% NaN3, and 1 mM EDTA in PBS). Then, Mouse BD Fc Block (manufactured by Becton, Dickinson and Company) was added thereto at a concentration of 5 μg/mL, and the mixture was left standing at 4° C. for 30 min. The cells were inoculated at a cell number of 1×10^5 cells/well to a 96-well U-bottom plate, and each chimeric antibody adjusted to a final concentration of 10000, 2500, 625, 156, 39, 10, 2.4, or 0.6 ng/mL was added thereto, followed by reaction at 4° C. for 60 min. The rat/human chimeric control antibodies used were rtDNP-1 hIgG1 (DF) antibody (KM8808) and rtDNP-1 hIgG1 (N297A) antibody (KM6161). The nucleotide sequences and amino acid sequences of the variable regions of each isotype control antibody are shown in SEQ ID NOs: 29 to 34. After washing of the cells with SM, Goat F(ab′)2 Anti-Human IgG PE (γ chain specific) (manufactured by Southern Biotech) diluted 500-fold with SM was added thereto, followed by reaction at 4° C. for 60 min. After washing of the cells with SM, the cells were resuspended in 50 μL of SM. Fluorescence intensity was measured by FCM (flow cytometer FACS Canto II (manufactured by Becton, Dickinson and Company)). The data was analyzed using FlowJo 7.65 (manufactured by Tomy Digital Biology Co., Ltd.) to calculate a Geomean value at each concentration.

Row | Molecule | ADCC activity against Y16 cells [1] | inhibition of Y16 cell growth (IL-5 signal-inhibiting function) [2] | inhibition of IL-33-induced increase in the number of eosinophils [3] | abundance ratio of eosinophils, in absence of IL-33 (PBS) [3] [%] | abundance ratio of eosinophils, in presence of IL-33 [3] [%] | inhibition of IL-33-induced vascular wall thickening (immunofluorescent staining) [4] | binding ability to Y16 cells, H7-1 and H7-2 compared [5] | Y16 growth inhibiting ability, H7-2 and H7-4 compared [2]
1 | B1 | none | not observed | not inhibited | 1.19 | 48.3 | not observed | – | –
2 | B2 | none | not observed | not inhibited | 0.92 | 52.4 | not observed | – | –
3 | B3 | exhibited antibody concentration-dependent ADCC activity | inhibited the growth of the Y16 cells in an antibody concentration-dependent manner | inhibited almost completely; also recorded: superior in eosinophil growth-inhibiting function | 0.24 | 1.58 | inhibited most strongly; also recorded: vascular wall thickening inhibitory effect superior to H7-4 or the IL-5 ligand-neutralizing antibody | slight rise in binding ability | equivalent inhibiting ability
4 | B4 | none | inhibited the growth of the Y16 cells in an antibody concentration-dependent manner | at a degree poorer than that of H7-2 | 0.17 | 29.1 | at a degree poorer than that of H7-2 | – | equivalent inhibiting ability
